Experimental data: the RNAGym collection of RNA variant scans (doi:10.1101/gr.219683.116)

B1: mRNA-splicing (parent)
chain: AGUUGCUGCUGGGAGCUCCAGCACAGUGAAAUGGACAGAAGGGCAGAGCAA

Variants of: B1
Assay: exon inclusion enrichment index; higher = more inclusion; WT1 exon 5 minigene, HEK293

Variant | exon inclusion enrichment index
G5C C6G U7C U10C A29U A30U | 1.81
G5C C6A U7C G8A C9A U10G | 0.428
A25C G26C | 0.435
G5A U7C G8A U10C G12C G13C | 0.397
G8C C9U | 0.216
G5C C6A U7C G8A U10A G13C A14C | 0.145
U4A G5U G8U C9U | 0.252
A47U G48C | 0.106
C6A U7C C9A U10C A30U A31G | 3.73
C6A U7A U10A | 0.234
C6A U7C C9A U10C A25C G26A | 4.93
C44U A45G | 0.0801
G5A U7C G8A U10C G33C G34U | 1.72
C6A U7A C9A U10A A39C A40C | 1.65
G5A C6U U7A G8U C9A C18U C19A | 0.00119
G5A U7C G8A U10C A14U G15U | 0.953
G5A U7C G8A U10C A14U G15C | 1.01
G5A U7C G8A U10C A14U G15A | 0.514
G5A U7C G8A | 1.09
G5A U7A C9A | 0.664
A45C G46A | 0.0421
G5A C6G U7G C9A A37C G38C | 0.00112
G5A C6G U7G C9A A37C G38A | 0.00086
G5C C6A U7C G8A U10A C22G A23C | 0.0525

Variant | exon inclusion enrichment index
G5A C6U U7A G8U C9A A23U | 0.0353
G5A U7C G8A U10C G28A | 0.733
C6A U7A C9A U10A A23G | 1.32
G5C C6G U7A G8A U10A | 0.321
G5C C6U G8C C9U U10C A39U | 0.0783
C6A U7A C9A U10A U27C G28U | 0.4
G5C C6G U7C U10C A25U G26C | 3.41
G5A C6G U7G C9A C22G A23U | 0.000928
G2C G5C C6A U7C G8A U10A | 0.0904
G33C G34A | 0.0659
G5C C6A U7C G8A U10A C16A U17C | 0.0679
C6A U7C C9A U10C G43A C44A | 4.49
G5A C6G U7G C9A C18A C19G | 0.00131
G5A C6G U7G C9A G26U U27G | 0.00474
G5A C6G U7G C9A G26U U27A | 0.00104
G5C C6U G8C C9U U10C C19A A20U | 0.553
G5C C6G U7C U10C G12C G13A | 0.8
G5C C6A U7C G8A U10A G33U G34C | 0.00585
G5A U7C G8A U10C C22U A23U | 1.53
G5C C6G U7C U10C A30U A31U | 3.18
G5A C6G U7G C9A C16A | 0.00192
G5A C6U U7A G8U C9A A40G G41C | 0.455
G5C C6G U7C U10C C19U A20U | 1.48
G5A C6G U7G C9A A40C G41C | 0.0197

Variant | exon inclusion enrichment index
G5C G8U C9U | 0.0356
G46C | 0.155
C6A U7A C9A U10A G34A A35G | 0.208
C6A U7A C9A U10A G34A A35U | 0.216
G5C C6U G8C C9U U10C U17A C18U | 1.58
C6A U7A C9A U10G | 0.498
G5C C6U G8C C9U U10C G41A G42C | 2.67
C9U U10A | 0.0452
G5C C6U G8C C9U U10C A37C G38U | 1.2
G5A C6U U7A G8U C9A C44U A45G | 0.0383
C6A U7A C9A U10A A35C C36A | 0.329
U3A U4A G5C C6A U7C G8A U10A | 0.0877
G5A C6G U7G C9A A39C A40U | 0.00672
G5A C6G U7G C9A G21A C22G | 0.00502
G5U G8U C9U G38C | 0.0741
G5C C6G U7C U10C G34A A35C | 2.92
G5C C6G U7C U10C G34A A35G | 2.26
G5A C6G U7C C9A | 0.117
G5A C6U U7A G8U C9A A25G G26C | 0.493
G5C U7G C9A | 1.66
G5A C6U U7A G8U C9A G15U C16U | 0.00626
G5A C6G U7G C9A G13C | 0.00103
G5C C6A U7C G8A U10A A31G U32C | 0.646
G5A C6U U7A G8U C9A A25C G26U | 0.133

Variant | exon inclusion enrichment index
G5U G8U C9U A39U | 0.00188
U4G G5A C6A U7C C9A U10C | 3.42
G5A U7C G8A U10C A23C C24U | 1.16
G2U U3C G5A C6G U7G C9A | 0.0791
G5C C6A U7C G8U C9U U10A | 0.0134
G5U U7G C9A | 2.09
G5A U7C G8A U10C A37G | 3.3
G12U | 0.925
G5A C6U U7A G8U C9A C24G A25C | 0.392
G5A C6U U7A G8U C9A C24G A25G | 0.0168
G5A C6G U7G | 0.00284
C6A U7A C9A U10A C44A A45G | 1.09
G5C C6G U7C U10C C44A | 4.17
C6A U7A C9A U10A G41U G42A | 0.192
G5C C6G U7C U10C G43U C44U | 1.4
G5C C6G U7C U10C G43U C44A | 0.0721
G5C C6A U7C G8A U10A C24A | 0.105
G5A C6U U7G G8A U10C | 1.97
C6A U7C C9A U10C U17G | 2.68
A23U C24A | 0.217
G5A C6G U7G C9A U10C G11U | 0.0108
C6A U7C C9A U10C C18G | 3.06
C6A U7C C9A U10C C18U | 2.7
G5C C6G U7C U10C G13C A14U | 1.88

Variant | exon inclusion enrichment index
G5C C6G U7C U10C G46C A47C | 2.58
G5A U7C G8A U10C A20G G21U | 2.6
G5U G8U C9U A30G A31G | 0.0186
G5A U7C G8A U10C G11U G12U | 0.337
C6A U7C C9A U10C A45G | 4.95
C6A U7C C9A U10C G28A A29C | 2.55
G5C C6A U7C G8A U10A G28U A29G | 0.0731
G5C C6U G8C C9U U10C U32A G33C | 2.37
G5A C6G U7G C9A A20C G21U | 0.00104
G5C C6G U7C U10C G33U | 1.79
C6G U7G C9A | 0.0321
G5A C6G U7G C9A G15A | 0.00165
G5C C6U G8C C9U U10C A29G A30G | 1.37
G5C C6A U7C G8A U10A A29G | 0.202
G5U G8U C9U G41C | 0.706
G5U G8U C9U C22U A23U | 0.0443
G5C C6G U7C U10C A39G A40C | 3.86
G5A C6U U7A G8U C9A G21A | 0.071
G5A C6U U7A G8U C9A G21C | 0.0844
G5C C6U G8C C9U U10C G46C A47G | 2.72
G5U G8U C9U G28C | 0.0778
G5C C6A U7C G8A U10A G42A G43C | 1.53
G5C C6A U7G G8A U10A | 0.0223
A37G | 0.438

Variant | exon inclusion enrichment index
G5U G8U C9U A35C C36U | 0.0048
G5U G8U C9U C44G A45C | 0.346
G5U U7A G8U C9U | 0.343
G5A U7C G8A U10C C36A A37C | 2.61
U7G C9A | 1.94
G5A C6U U7A G8U C9A A40U G41U | 0.0246
G5A C6G U7G C9A A20C | 0.00932
G5C C6U G8C C9U U10C A30G | 2.12
G5A U7C G8A C9G U10C | 1.65
G5A U7C G8A C9G U10A | 0.989
C6A U7A C9A U10A U27A G28U | 0.247
C6A U7C C9A U10C G42A G43C | 4.49
C6A U7A C9A U10A A37U G38U | 0.112
G5A C6G U7G C9A G11A | 0.000945
G5A C6G U7G C9A A29C A30C | 0.00169
G5C C6A U7C G8A U10A C18G C19A | 0.143
G5C C6G U7C U10C C19G A20U | 3.16
G5C C6U G8C C9U U10C A31C U32G | 2.49
G5A U7C G8A U10C C24U A25C | 3.55
U4C G5A C6A U7C G8A U10A | 0.437
G5C C6U G8C C9U U10C A39G A40G | 0.186
G5C C6A U7C G8A U10A G38A A39G | 0.102
U4G C6U G8C C9U U10C | 0.778
C22U A23G | 1.77

Variant | exon inclusion enrichment index
G5C C6A U7C G8U C9G U10A | 0.381
C6A U7A C9A U10A A40G G41U | 0.576
C6A U7C C9A U10C G42U G43U | 3.65
G5C C6A U7C G8A U10A C22G | 0.197
G5C C6A U7C G8A U10A G43C | 0.238
G5C C6U G8C C9U U10C G34C A35G | 1.38
G5C C6U G8C C9U U10C G41C G42U | 2.93
G5A C6G U7G C9A A47G G48A | 0.000837
G5C C6A U7C G8A U10A G42U G43U | 0.305
G2C U3C G5A U7C G8A U10C | 2.27
G5C C6G U7C U10C G46U A47G | 2.91
G5C C6U G8C C9U U10C A30U A31C | 1.95
G5C U7A G8U C9A | 0.077
G5C C6G U7C U10A G11A | 2.25
G5U G8U C9U G33A G34U | 0.0046
G5C C6G U7C U10C A45U G46A | 2.95
G5C C6G U7C U10C G13U | 0.534
G5A C6G U7G C9A U17A C18U | 0.00863
U4G G5A C6G U7G C9A | 0.00812
G5U C6G U7A G8U C9A | 0.241
U3A G5A U7C G8A U10C | 3.2
A39G | 0.074
G5A C6G U7G C9A G43U | 0.00185
